Experimental data published in paper PMC7261172, “Peptides containing the PCNA interacting motif APIM bind to the β-clamp and inhibit bacterial growth and mutagenesis” (Nucleic Acids Research, 2020).

Experiments:
[1] = target: β-clamp (Escherichia coli) (UniProt P0A988); conditions: cited from earlier work
[2] = target: E. coli β-clamp, wild type, His-tagged (UniProt P0A988); test: SPR; conditions: peak response at the end of the last (highest) peptide injection, about 1130 s; concentrations not given; parent: est. 140; read off a plot

| response [2] | Substance | Kd [1] |
| --- | --- | --- |
|  | Pol III alpha C-terminal peptide | 2000 nM |
| 8 RU | Octamer APIM peptide RWLVK (Ac-MDRWLVKW) MDRALVKW (mutated APIM; W to A at peptide position 4 of MDRWLVKW) |  |
